Test: soluble on expression in E. coli; label from the status in PepcDB or PDB records

Row | Sequence | soluble on expression in E. coli
1 | MSDSNTPNPPGTEERLVQQLDSYFSNTATGNETGEASAPAAPNNAAGTSDQDRPPNLAPILMLSYLNHCMSKKSFTPEDIQKSVWEQKSKKLSQEDWEFCKYFISSKELLLQLAPGKKRKTQAQALIELILKKFPGVGVEMLTRLLDPSESAYIIYDVIEQVKCEPKCDAESIKQEEFMYSQKINKKIRENNKCFKFSMVFERLRNGSSLPEEKPFAPLEFRTITSEYSNIYTQMVKATTYVELMDVMSKLKTTRLSVNELYFSAKHMQNPEKDTQDEFWEAESEKVLELQPLMIDPQLESTSRQRLKILQELALQQKMLKEVDEIISMSFELVTKSLSTGNPHNPADVQSLMINSNAPSIPDQRKNDWMEYYNLNPLGQYPISSHFPRSDRIGPKLPAVIQKISIRYCLSKEIEVIETIDEWKCREFCTYDHNLKDFRRHKCEICEVEVQECDLSLRQTKWCSHIEDQVLLMYNRVNGRLEQYVFSFETKGFKEVYCSCIEVTYRGKNGPEEPVLLTNGSEHVVIKEADPGVVKLQLVGENHVEIPAVPVQQLSAEEIEMQDAYDSSKSESESEHESEQISYNKTFISTLPMFKVRHCPLSRKDVLYVRSNNLGQYEKYDYHPTYHRFEPFKCSKCKDATSEDHLVPKYAEHCPETNEFVIHTENLFTERMEQYIYDSMTQGFRQVYYPQFLYDPSKDHTSNVFVTVNYLSTVITRDKDGRFKKEKFCDNLKKFVAIPEVEVNTFTVQELEKKKNKRRVDSDSDSFEHIEIPDMVSASP | not soluble
2 | MEGDVLSGFGDRHNMDGKLLQSFQKSFVDVQDILDQNRLLINEINQNHESKQPDNLGRNVGLIKELNNNIRRVASLYGDLSHSFARSVDASSEGESSGTLKSDGKANQKRFRSGDGSLVPATDEEMLEVKNLLEKNEQDMPVLPDPIQTEEYIPDEGSPSQFLQLENFEGKTYCIHAKTDRISLGLHDKGIYWVTCNVGAINFTPPLKLLQSKEELMNGSQMLFVLPDTKFQISTELSGNVELVPSKVLLQEPILFSSNGCSINQSTDVLNATASPKEPALSTAASKPDFSRVPGEISLANLSIKELQETFRATFGRETTSKDKRWLKRRIKMGLINSCVVPTTTLTINDSKLIGGDQDAIDAFSKGTVDEETATESIDTPASPDGIKGHSNDFGHSPVETFVDHYSGNEDFEGEDGSAKRVRKPTRRYIEETNEKQQIDGSMIPSKDPSSIQAVSSEGRVVVTRMVSLAGSRIQVPYVSHVRRSRPRENIMALGEFRSKSWEVKAAPEEGNLNLSPPQLSNDVNRVPGVKSASRCVQKESDKDHLKPIFTDVDQEMMEPELLDSSGDSSDDNFVDAPITQSASGRKLHRAWTISEVEKLVEGVSKYGVGKWTEIKKLSFSPYTHRTTVDLKDKWRNLQKASSSNRMEGGLKKHGSMAIPTHIMLQVRELAQKQSPISRVVSKARVVKRSRSRNGFL | soluble
3 | MNFLKKEPFKIFSMIYLLLDTITNRAGTERAVINLANNLHANGHRVSLVSVCTKEGEPSFQVEKGIEVHHLGIRLYGNALARKTVYFKAYRRIKALYKKREPVLLIGTNIFINTILSQISNRGRIFTIGCEHISYDIARPITKRIRGFLYSGLDAVVALTKRDQQSFEAILRGRSKAYVIPNQVSFTTVQRDATTHKQMLAIGRLTYQKGFEFMIEDASRVLRERPDWKLIIVGDGENESMLRKEIASRNMESQIEIHPSTPEIRKYYESSAIYLMTSRFEGLPMVLLEAEAYALPIISYDCPTGPRELIENGRNGFLVPMEAHEDFADKLRLLMDDETLRKKMGQESELMVKSYSPANIYECWKKLFVEIGYMN | soluble
4 | HQPVSFGLSVRKSLPKGFSVETGLTYTLLSSDIKRQGDTKMQSQKLHYIGIPVRGNWNFLEKKYFTLYVSAGGMVEKCVYGKLADDKVNVKPLQFSVAGAVGAQFNATDHVGLYVEPGVSYFFDDGSKVQTIRKERPCNFNLQAGLRFTY | not soluble
5 | AFYNITLRTNDGEKKIECNEDEYILDASERQNVELPYSCRGGSCSTCAAKLVEGEVDNDDQSYLDEEQIKKKYILLCTCYPKSDCVIETHKEDELHDM | soluble
6 | MNIMEIEKTNRMNALFEFYAALLTDKQMNYIELYYADDYSLAEIADEFGVSRQAVYDNIKRTEKILETYEMKLHMYSDYVVRSEIFDDMIAHYPHDEYLQEKISILTSIDNRE | soluble
7 | MTNHEQVLTDYLAAFIEELVQAGVKEAIISPGSRSTPLALMMAEHPTLKIYVDVDERSAGFFALGLAKASKRPVVLLCTSGTAAANYFPAVVEANLSQIPLIVLTADRPHELRNVGAPQAMDQLHLYGSHVKDFTDMALPENSDEMLRYAKWHSSRAVDIAMKTPRGPVHLNFPLREPLVPILEPSPFTATGKKHHHVH | not soluble
8 | MGSDKIHHHHHHMNTVTIIGCGWFGLPLATQLVKQGIKVKASKRHPEDLVQLQQAGVDAYQLNLANVNSQAKNSSLFDADAIVINLPPGLRRGETDYLGYLTQLITLMGEHQYQKIIFISTTGVYPSLDQTVTEQDAAAFNDTSRTLLQAEAMFSAMKNSCIVRFSGLVGPKRHPGRFFAGKTDVSGANVAVNLVHLDDCIAAVSLILSRNDTLPIYNLAANAHPTRGEFYVAAAEHLGLTAPEFNQQQQPNKTIDGQLICHHLGFTYAFNNPFKMLDAC | not soluble
9 | MTGFKVSSFFYILALSRFFNAGRERACDKLKITVTHLYWFIIRKLLLHEVHVHVSRVCNVSFILSPCLFRNFFTLSLHVLYVMYEQALTPEFFRQWWDIIQSK | soluble
10 | MSESFDCAKCNESLYGRKYIQTDSGPYCVPCYDNTFANTCAECQQLIGHDSRELFYEDRHFHEGCFRCCRCQRSLADEPFTCQDSELLCNDCYCSAFSSQCSACGETVMPGSRKLEYGGQTWHEHCFLCSGCEQPLGSRSFVPDKGAHYCVPCYENKFAPRCARCSKTLTQGGVTYRDQPWHRECLVCTGCQTPLAGQQFTSRDEDPYCVACFGELFAPKCSSCKRPIVGLGGGKYVSFEDRHWHHNCFSCARCSTSLVGQGFVPDGDQVLCQGCSQAGP | soluble
11 | MSLNIETIVKGRRMITKFPPQWQEKLDQVAFTHLTPIQEQAFQPIVDGKNFLGISPTGTGKTLAYVFPSLLALTPKKSQQLLILAPNTELAGQIFEVTKDWAQPLGLTAQLFISGTSQKRQIERLKKGPEILIGTPGRIFELIKLKKIKMMSVNTIVLDEYDELLGDSQYDFVQKISHYVPRDHQMVYMSATNKVDQTSLAPNTFCIDLSEQTNDAIQHFYLMVDKRERTDLLRKFANIPHFRALVFFNSLSDLGATEERLQYNGAAAVSLASDINVKFRKTILEKFKSHQLSLLLATDLVARGIDIDNLDYVIHFDVARDKENYTHRAGRTGRMGKSGIVITFVSHPEDLKKLKKFAKVSEISLKNQQLHFINEGHHHHHH | not soluble
12 | MSLQTKILIIDGDKDNCQKLKGFLEEKGISIDLAYNCEEAIGKIFSNKYDLIFLEIILSDGDGWTLCKKIRNVTTCPIVYMTYINEDQSILNALNSGGDDYLIKPLNLEILYAKVKAILRRMNSYVNNNENNTKLEEYNRTSGVIKLEDKIIKLTPTENKLLNFFIENPEKTLTTKEIYEHVWMNEYLEDNYSVVVAVNGLRKKIEKDYKNPQKIITIRGAGYYFNKEGHHHHHH | soluble
13 | MYQAIAQAIIKSIMADEYPTKLPTEKVLMAQYNASRNTIRKAIDVVFRHGLLRRVQGSGNFIIKQPQNTKKVLNLSIGFDQSAMVDGGPLVSKVVTFDKVTADETLAQQGNIALGDEVYRVVRLRYLNDILYDLEESYFPRTVVPFLSSESVQHSIFAFLREAYGITGSTTENYVHQVRVDAQRAELIGCPDGDKTLCLEAINYLANGTVFNFSRTFFVYPDLELYYHTENIDLQN | not soluble
14 | MEFTLLGWPEDGHRLRLDYKQFAYAGKFVMTSTGKAVIGDDGVVAAAAFDADRTDPDTLCVRYITVRQDRQGDRLGARLLRFVRERATERGFEHVSIGVNNPFSYQAAYRAGFCFSGAESGMAELDLVWPGDRSTERYQAGLDLFRERDLSPDEESFLAAKADADPPTVLNEWAEQPSARTD | not soluble
15 | MRKISVFDTTLRDGEQSAGVNLNFEEKMEIAKQLERLGVDIIEAGFPASSQGDFQSVKAIAETVKGSSVTGLARSVQKDIDAAWEALKSAEEPRIHLFIATSPIHMEHKLRMTPEQVIEKAVESVKYAASRFKHVQWSAEDASRSDFPFLAQIIEAVIQAGATVINLPDTVGYTTPQEIKRMFQYMKQNVPSIDKVSLSTHNHDDLGMAVANSLAAIQGGADQVECTINGIGERAGNASLEEIAVALNIRKDHYETETGLILKEIKRTSSLVSKLTGMVVPNNKAVVGANAFAHESGIHQDGVLKNKQTYEIITPEMVGVSSNSMVLGKHSGRHAFKTKVQELGFTGTDEQLNNIFKAFKDLADKKKEITEDDLFALMTEQTVGGETNHYELQTLQVNYGSNLTNTATITMKLPSGEVAEEAATGSGSVEAIYNTLERLLDAPVKLLDYRIQSITGGRDALADVYVQMDYQGVVSSGRGTAHDVLEASAKAYLNAVNRTINRKKYAEVYGSKVEV | soluble
16 | MTTAIQYQVIPLADREHSNKVASILENKYKTATNKRITLNERFGVLEKGYTIQATEPETVKNDSDVFFVVHDRNLNSKKEFVENYLAKNPIVNSPEKVFEEEDKENAPTKKAVLKPSSTDEKKLTSSDIYIQEITRSILQSV | not soluble
17 | DKEVVVLGSGDPMFHGIGSTLHRLLPNHSMTVIPQPSSASLACARLGWALDTTSVYSLVTHPIAHLTLAIEQGDRFLVLGRNHESPHEICEHLISLGQSTAEVTVLSDIGSVSETITSGAATDYPSNDSALNVIAIRPLAATRSRVPGLPDSEYVTDGQLTKQHVRALAISALAPKPHETLWDIGGGSGSIAIEWLRSTPQTTAVCFEISEERRERILSNAINLGVSDRIAVQQGAPRAFDDVPDNPD | not soluble
18 | MMTSAFAPSEQSLVASPQDLPAVDVAIVGAGIVGLSLACALRNSGLAIALIEATPYRRENTKGQAYALHQVSRYFFEEIGVWDKLMPHVQPFEVVQLSDERFPLTVHFSPADLGTEALGYVGEHSAIAETLQSVLQSAGNVTFYCPWRVVTNEVHGDRAQLTLISGDPGEPKVAHLAARLVVAADGGKSPLRQQMGIEPKGWQYPQSCVVATLDVAHPQPVIAYERFWPTGPMGVLPLPRNRYRVVWTLPHPEAEAVAALDDRSFLATLQPYLDPQMAEITAVGDRFVFPAQFMQVNSYAADRFVVIGDAAHRCHPVGGQGLNLGLRDVWNLAQQILASPLEEIGDRRHLMHFHRQRWWQNVLTLAFTDFLNRLFSNTGWPLVAVRRCGLGLLCLLPPLKRLLLRFMAGLLLPLPGDREFPRGRLEHHHHHH | not soluble
19 | MSLTPTFKDKIARAPKAELHIHIEGSLEPELIFALAQRNGVKLAYDSIDALRAAYAFTDLQSFLDIYYAGASVLLTEQDFYDMTAAYCERALADNVVHTELFFDPQTHTERGVSIETVVAGIERALADAEQRGLSSKLILCFLRHLSEEDALATFESALPLFERYRHRLIGVGLDSSELGHPPTKFARVFEKARALGLKLVAHAGEEGPPAYIYEALDVLKVDRIDHGVRSIEDEALVERLAKTRTALTVCPLSNLKLCVFDDMAKHTLKALLDRGVAVTINSDDPAYFGGYVNENYFATAEGLQLTDAEVHAVIRNGFEASFIEPAQRDALYARLDAYWQAAEGHHHHHH | soluble
20 | SPGSAAKGSELSERIESFVETLKRGGGPRSSEEMARETLGLLRQIITDHRWSNAGELMELIRREGRRMTAAQPSETTVGNMVRRVLKIIREEYGRLHGRTDESDQQESLHKLLTSGGLNEDFSFHYAQLQSNIIEAINELLVELEGTMENIAAQALEHIHSNEVIMTIGFSRTVEAFLKEAARKRKFHVIVAECAPFCQGHEMAVNLSKAGIETTVMTDAAIFAVMSRVNKVIIGTKTILANGALRAVTGTHTLALAAKHHSTPLIVCAPMFKLSPQFPNEEDSFHKFVAPEEVLPFTEGDILEKVSVHCPVFDYVPPELITLFISNIGGNAPSYIYRLMSELYHPDDHVL | soluble
